The values below are quoted from earlier work in US20170037111A1, “Novel peptides and combination of peptides for use in immunotherapy against ovarian cancer and other cancers” (immatics biotechnologies GmbH, priority 2015, published 2017).

The data set relates to ovarian cancer. Particulars: clinical studies, phase as stated.

B1: abagovomab: anti-CA-125 antibody (antibody, chains of the INN, looked up, V domains shown)
VH: QVKLQESGAELARPGASVKLSCKASGYTFTNYWMQWVKQRPGQGLDWIGAIYPGDGNTRYTHKFKGKATLTADKSSSTAYMQLSSLASEDSGVYYCARGEGNYAWFAYWGQGTTVTVSS
VL: DIELTQSPASLSASVGETVTITCQASENIYSYLAWHQQKQGKSPQLLVYNAKTLAGGVSSRFSGSGSGTHFSLKIKSLQPEDFGIYYCQHHYGILPTFGGGTKLEIK
With B1, the “clinical effect in ovarian cancer patients” value was “promising results”.
